Source: patent US10532083B2, “Methods for inducing differentiation or conversion of white adipocytes and/or preadipocytes to brown adipocites using FGF8” (Technische Universität München, priority 2014, dated 2020)

Legend:
[1] = system: subcutaneous, inguinal white adipocytes; assay: Ucp1 / brown adipocyte marker mRNA (qPCR) in immortalized inguinal white adipocytes treated with FGFs; format: cell-based, murine
Description: Screening paracrine FGFs for a browning potential. A, B—Screening of all paracrine FGFs in immortalized white adipocytes. Subcutaneous, inguinal and visceral, epididymal white adipocytes were grown to confluence in Dulbecco's modified Eagle's medium with 4.5 g/l glucose, supplemented with 20 nmol/l insulin, 1 nmol/l triiodothyronine, 20% fetal bovine serum, and penicillin/streptomycin. Upon reaching confluence, differentiation was induced with 500 mmol/l isobutylmethylxanthine, 250 mmol/l indomethacine, and 2 mg/ml dexamethasone for 24 hours. Subsequently, members of the paracrine FGF protein family were added to the medium for the following six days. The medium and the FGF indicated were changed every 48 hours. Untreated cells served as a negative control. At the end of the differentiation process total RNA was isolated using TRIzol reagents, RNA quality and concentration was measured by photometric analysis, and 5 μg of total RNA was reverse-transcribed to cDNA. Finally, quantitative analysis of UCP-1 mRNA expression was performed. A bar graph analysis including the SEM of 3 to 6 independent experiments is shown. […] B—Four different splicing forms of the Fgf8 gene were compared by quantifying Ucp1 mRNA expression in fully differentiated white adipocytes. UCP-1 mRNA abundance is shown in percent of the FGF8b value. Fgf8b and Fgf8f were able to increase expression in epididymal adipocytes. C—Illustration depicting the different exon usage that characterizes the FGF8 spliceforms a, b, e, and f.
Dose dependency of Ffg8b action. A, B—Subcutaneous, inguinal and visceral, epididymal white adipocytes were grown to confluence in Dulbecco's modified Eagle's medium with 4.5 g/l glucose, supplemented with 20 nmol/l insulin, 1 nmol/l triiodothyronine, 20% fetal bovine serum, and penicillin/streptomycin. Upon reaching confluence, differentiation was induced with 500 mmol/l isobutylmethylxanthine, 250 mmol/l indomethacine, and 2 mg/ml dexamethasone for 24 hours. Subsequently, FGF8b in five indicated concentrations were added to the medium for the following six days. The medium and the FGF8b were changed every 48 hours. Untreated cells served as a negative control. At the end of the differentiation process total RNA was isolated using TRIzol reagents, RNA quality and concentration was measured by photometric analysis, and 5 μg of total RNA was reverse-transcribed to cDNA. Finally, quantitative analysis of UCP-1 mRNA expression was performed. FGF8b induces Ucp1 mRNA abundance in inguinal and epididymal adipocytes. Epididymal fat cells were more dose dependently responsive to Fgf8b treatment as compared to inguinal cells. The latter were responsive to FGF8b treatment above the threshold indicated. B—The absolute increase of several genes typical for brown fat cells.
Treatment timecourse experiment. A, B—Subcutaneous, inguinal and visceral, epididymal white adipocytes were grown to confluence (prolif. denotes proliferation period) in Dulbecco's modified Eagle's medium with 4.5 g/l glucose, supplemented with 20 nmol/l insulin, 1 nmol/l triiodothyronine, 20% fetal bovine serum, and penicillin/streptomycin. Upon reaching confluence, differentiation was induced with 500 mmol/l isobutylmethylxanthine, 250 mmol/l indomethacine, and 2 mg/ml dexamethasone for 24 hours (induction). Subsequently, the cells were cultured for another six days (differentiation). At the end of the differentiation process total RNA was isolated using TRIzol reagents, RNA quality and concentration was measured by photometric analysis, and 5 μg of total RNA was reverse-transcribed to cDNA. Finally, quantitative analysis of UCP-1 mRNA expression was performed. Untreated cells served as a negative control. A bar graph analysis including the SEM of 5 independent experiments is shown. A—Epididymal fat cells were treated with FGF8b during different time windows as given by black squares indicating one day of treatment each. […]

inguinal adipose tissue = assay: FGF8b releasing pellet implanted into inguinal (subcutaneous) adipose tissue in vivo; design: species or system 129Sv/ev mice; conditions: FGF8b pellets implanted into inguinal adipose tissue
Description: Pellets 1.5 mm in diameter were fabricated from a biodegradable matrix to locally release 100 ng FGF8b per day for 21 days (Innovative Research of America, Sarasota, Fla., USA). […] To implant a pellet into the subcutaneous adipose tissue, a mouse of the 129Sv/ev strain was anesthetized, abdominal fur removed and the pellet pushed into the depot through a short cut in the skin. To target the visceral adipose tissue, the pellet was introduced through a small cut each into skin and abdominal wall and placed between lobes of epididymal adipose tissue. Mice were kept in a specific pathogen free barrier facility at room temperature in a 12:12 hour light:dark cycle with free access to food and water. Three weeks after implantation mice were killed by carbon dioxide exposure and dissected. Blood parameters were analyzed with an automated clinical chemistry analyzer (Piccolo xpress system, Abaxis, Darmstadt, Germany). All animal experiments were performed according to the German animal welfare law (permission no. 55.2-1-54-2532-174-11). By visual inspection, the implantation site of FGF8b pellets and the surrounding adipose tissue was of a brown colour, while both the non-implanted contralateral depot and the implantation site of placebo pellets remained characteristically white (FIG. 6A). […]

[2] = system: visceral, epididymal white adipocytes; assay: Ucp1 / brown adipocyte marker mRNA (qPCR) in immortalized epididymal white adipocytes treated with FGFs; format: cell-based, murine
[3] = continuous treatment during differentiation, fully differentiated cells (FIG. 2B)
[4] = epididymal cells treated 48 hours during proliferation prior to induction
[5] = epididymal cells treated 48 hours during proliferation prior to induction, sampled acute to d6 p.i.

B1: FGF8b: murine recombinant paracrine fibroblast growth factor 8, major spliceform b (R&D Systems); amino acid sequence identical to human, SEQ ID NO:16/20 (protein)
chain: MGSPRSALSCLLLHLLVLCLQAQVTVQSSPNFTQHVREQSLVTDQLSRRLIRTYQLYSRTSGKHVQVLANKRINAMAEDGDPFAKLIVETDTFGSRVRVRGAETGLYICMNKKGKLIAKSNGKGKDCVFTEIVLENNYTALQNAKYEGWYMAFTRKGRPRKGSKTRQHQREVHFMKRLPRGHHTTEQSLRFEFLNYPPFTRSLRGSQRTWAPEPR
modifications: human FGF8b
- Ucp1 mRNA abundance, induction ([1]; fully differentiated inguinal cell line, treatment after induction for entire differentiation period of 6 days, screening concentration 25.0 ng/ml, untreated cells as control): 2.1 fold
- Induction of Ucp1 mRNA expression (browning potential), screening of paracrine FGFs and FGF8 spliceforms ([1]; inguinal adipocytes, six days of differentiation, FGF8a, b, e, f 25.0 ng/ml, FGF17 10.0 ng/ml): only isoform with browning potential
- Cidea mRNA abundance ([1]; inguinal adipocytes, treatment during differentiation, smaller effect size than in epididymal): increased
- Ucp1 mRNA abundance, dose dependency ([1]; inguinal cells, different concentrations during entire differentiation phase of 6 days): only the highest dose increased Ucp1 expression
- Most effective concentration for Ucp1 induction ([1]; inguinal cells, highest concentration tested, 6 days of differentiation): 125 ng/mL
- Final Ucp1 mRNA abundance after full differentiation (responsiveness) ([1]; inguinal cells, treatment during different days of proliferation, induction and/or differentiation): only responsive to FGF8b treatment in their fully differentiated state
- Visual browning and expression of brown adipocyte marker genes (inguinal adipose tissue): did not lead to visual browning or increased expression of brown adipocyte marker genes
- Cox7a1 mRNA [2, 3]: not or only slightly increased
- Elovl3 mRNA [2, 3]: not or only slightly increased
- Cidea mRNA abundance ([2]; epididymal adipocytes, treatment during differentiation, greater effect size than in inguinal): increased
- Cox7a1 mRNA abundance in mature adipocytes [2, 4]: increased
- Foxc2 mRNA abundance, acute response [2, 4]: do not acutely respond
- Prdm16 mRNA abundance, timecourse [2, 4]: transient increase in abundance directly following induction
- pRb mRNA abundance, acute response [2, 4]: do not acutely respond
- Cidea mRNA abundance, timecourse [2, 5]: already increasing on day 4 p.i.
- Elovl3 mRNA abundance, timecourse [2, 5]: already increasing on day 4 p.i.
- Ucp1 mRNA abundance, timecourse ([2]; epididymal cells treated 48 hours during proliferation prior to induction, sampled acute, d1, d2, d4, d6 p.i., normalized to untreated): increased 6 days after induction for the first time
- Pgc1a mRNA abundance after complete differentiation ([2]; epididymal cells treated 48 hours during proliferation, day 6 p.i.): increased Pgc1a mRNA abundance
- Pgc1a mRNA abundance, acute ([2]; epididymal cells treated 48 hours during proliferation, sample immediately after treatment): acutely downregulated
- Final Ucp1 mRNA abundance after full differentiation (responsiveness) ([2]; epididymal cells, comparably late treatment (fully differentiated state)): respond
- Final Ucp1 mRNA abundance after full differentiation ([2]; epididymal cells, treatment during the entire differentiation period): strongest Ucp1 induction
